This series addresses DNA polymerase gamma catalytic subunit p140, Exo- R964C (Homo sapiens, UniProt P54098 26-1239, D198A;E200A;R964C). The series can be described thus: EMSA. Background: In EMSA bound probe runs differently from free probe, usually more slowly.

Sequence of DNA polymerase gamma catalytic subunit p140, Exo- R964C (P54098 26-1239 D198A/E200A/R964C): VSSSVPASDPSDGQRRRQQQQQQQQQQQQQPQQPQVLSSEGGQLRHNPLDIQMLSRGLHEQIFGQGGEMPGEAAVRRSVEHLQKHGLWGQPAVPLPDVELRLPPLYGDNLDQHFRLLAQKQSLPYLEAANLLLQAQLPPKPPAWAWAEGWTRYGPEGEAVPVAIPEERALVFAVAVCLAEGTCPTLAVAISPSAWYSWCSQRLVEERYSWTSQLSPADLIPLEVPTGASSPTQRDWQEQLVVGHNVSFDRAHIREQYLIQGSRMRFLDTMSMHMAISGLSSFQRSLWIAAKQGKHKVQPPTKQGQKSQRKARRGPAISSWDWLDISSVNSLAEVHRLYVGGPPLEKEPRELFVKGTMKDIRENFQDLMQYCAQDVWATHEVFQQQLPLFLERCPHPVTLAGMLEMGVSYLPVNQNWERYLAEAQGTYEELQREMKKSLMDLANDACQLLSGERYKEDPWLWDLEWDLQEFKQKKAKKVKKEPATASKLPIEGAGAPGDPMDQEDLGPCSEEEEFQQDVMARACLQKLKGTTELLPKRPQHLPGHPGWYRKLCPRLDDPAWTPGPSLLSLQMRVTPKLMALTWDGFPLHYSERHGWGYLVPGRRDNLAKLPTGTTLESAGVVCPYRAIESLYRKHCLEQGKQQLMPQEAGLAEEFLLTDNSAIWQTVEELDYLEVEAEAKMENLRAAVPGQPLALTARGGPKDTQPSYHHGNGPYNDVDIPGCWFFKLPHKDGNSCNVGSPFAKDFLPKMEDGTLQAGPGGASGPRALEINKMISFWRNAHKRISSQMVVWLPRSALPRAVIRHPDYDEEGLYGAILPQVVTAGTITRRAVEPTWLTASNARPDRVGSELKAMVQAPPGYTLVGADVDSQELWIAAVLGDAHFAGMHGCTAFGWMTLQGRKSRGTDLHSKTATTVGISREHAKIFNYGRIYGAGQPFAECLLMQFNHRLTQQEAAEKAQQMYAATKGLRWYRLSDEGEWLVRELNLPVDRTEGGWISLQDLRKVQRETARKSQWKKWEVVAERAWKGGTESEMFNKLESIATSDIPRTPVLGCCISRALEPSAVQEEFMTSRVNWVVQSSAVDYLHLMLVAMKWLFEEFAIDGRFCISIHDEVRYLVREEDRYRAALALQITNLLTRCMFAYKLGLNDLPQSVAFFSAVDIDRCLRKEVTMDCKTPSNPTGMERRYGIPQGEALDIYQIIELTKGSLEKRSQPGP

B1: 38-mer/34-mer primer-template (dsDNA)
DNA 1: TTATCGCACCTACGTTCAATATTACAGGCGAACATACT
DNA 2: GTATGTTCGCCTGTAATATTGAACGTAGGTGCGA
The term Kd denotes a measure of binding affinity in units of concentration. A low value points to tighter binding. As to B1, binding was put at a Kd of 75 ± 4 nM.

For the origin of these results see paper PMC2901396.
